Protease stability score data for 47 sequences are collected here from the NTF2 design screens of Basanta et al. (2020).

The nature of the data set: protease stability score; higher = more stable; yeast display proteolysis, trypsin and chymotrypsin.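 Note: relative to predicted unfolded state with 0 unfolded-like and 1 meaning tenfold more protease.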
For the sequence “SEEEELADIALREIIETLRTGNEELLDKLVDPHVKILFDGREFIGRKDYLRLLREIRIHHVTIEDMEVQGEKVHINMRVDGEINGRRNDYKVQLIALKFNGKWIIEHEHLH”, the protease stability score was 1.3.

As to “SEEEELAERFYEKFLRLARTGDEDELKRLFDPHVRHYVDGRELIGRELLVKFLIEWRVHDSEIREVRIQGDKLWFNTVIHGNFNGVETKQEMEVRSRKIDGQWFATEVQIK”, the protease stability score was determined as 0.694.

Take “SEEEELAERMIRIWQKDIRTGNEESLSKFIDPNVRNEYGDKTHHGRHVFADVIRRILDELGVTNVHSRLTRMEIQGDKVRVDVQINIDGQEYRIEVHFEKVNGRWNVTSWNIR”: the protease stability score stood at 0.698.

In turn, “SEEEELALKLLRVLWHHLETGDEETLNHLLDPDTRWNVDGVNFHGMRDFVRHFRERLKHARLHSLHVHRFSMINGVMHFDGEVNEIYGDKTERYRVRIELVVVNGRWKELYLHKI” displayed a protease stability score of 1.55.

“SEEEELALRFWHELTHYRETGDEESLLKYVDPHVRLDVNGKDIHGMEEIARFLVEIRVKIETHVHDIKLINGKIHMDVRLHIEFDIDGKNVKRRHESRVIVRKVNGKWIIKTFELT”: the protease stability score came to 0.53.

Turning to “SEEEELAMRIAREVLELWYTGDEDRLTELADPNTRVIFQYGDKEISFHGREWYSKIMLEWRIERVDLRSERAIGDKYELDVHFVGHINGKRHNYRFHIHMLVVNGKLKNIEVRVK”, the protease stability score is 2.2.

For “SEEEELAREAMRILIEAIVTGDEDEIRRLLDPHVRIEVHIGDKSIKNHGRESMVRILRWLGVDHIDIKRFRLEIQGEFLHLDLDTEFHFNGVTVRTRINNRSLKINGRWQTKEVKYFIE”, the protease stability score was 1.27.

For the sequence “SEEEELARHAFELWTRSMLTGDEHTMEKLFDPNTRLDINGRDHVGRELFLEFIHRLLREWRFRDVKLEDVKSVNGVLFLKVRLDVEFDGRRYSLTVELIVTKINGKWHMTEIKMH”, the protease stability score was 0.353.

On to “SEEEELARHIFELWIKTLRTGDEKLLRELADPHVQVILLVDGRHLENHGWEEFVRIFKEWRIHRVHVHDVKVFENRIHMDGTIDYEIGDKRFITKRIVDLVVINGRLKRLEIQIH”, for which the protease stability score was determined as 2.66.

Regarding “SEEEELARHSIEVMIRLYETGDWDSSVDMADPHTRVHINGRDLIGREFYSEWSKEHLKRYKNATIILEDHEVQGNKVKVRIRIIVGDKESEIIFYILKINGRWIWHTVEVR”, the protease stability score was 2.19.

For the sequence “SEEEELARQVLELWIHWYQTGDEESFRKNIDPHTRFDINGKHLHGREHVSKHLHDRAREMRIHDVFIKDVRLQGEKARMDGVIDGTIGDKRHEFKVEVTVQSINGRIDHLEFRFR”, the protease stability score turned out to be 1.18.

Sequence “SEEEELATEIFRKWIELLETGDEHTFRELADPDYRLIILYGDFIINDIGRERAIERWKQHLKQFDHWEIIIDRERVVNGVVHVDGILVLRINGREHNRRVKIELFIFDGRMKEVDIHID” came in with a protease stability score of 2.6.

“SEEEELAVKMWEIWLRSFLTGDETRLDQMMDPHAKLERIINGKRQHTHGWENVLKELIRLADELRVEHIHIRSEHRQGEKLDVKGEIDGDINGVRRRVEVDIHLVIVDGRIRHVKEVIR” returned a protease stability score of 1.12.

Regarding “SEEEELDKKAFKLWIHSLRTGDEDLITELADPRVKMTIGDKEFHGREEFKHAMHELLKRVDHIKDVKLKHWDVINGRLHVIVEVNGNVDGRETYIETSMTSLKINGRWILQSWSVR”, the protease stability score came out at 1.31.

As for “SEEEELDRRITDLIVHARKTGDEEMWQRYADPHVRLFWFQGDYLLMIVGREDASKWMRHLLEELGIKHIEFKHIDIFDGRSHIDSRVKVNGKERETRHQFVVVNGRITEVREKID”, the protease stability score is 0.415.

Consider “SEEEELEEFFIHLMIRMWDTGDFRTFKRLADPNVRLEVNGRHVVGREEVERLLRELLELLGADVIIHRDRDRDKFNGVIVVIIHGQIRQGDKFFDTHLHFVIEKVDGRWLLKSIHIEIR”, for which the protease stability score amounted to 1.5.

As for “SEEEELEERLTRYWLHAFWTGDWEHLKEMADPDARHRLHFENHTESVHGREYLVLIYVRIIRNLGFKHLEIDHVRVVDGVFRIHGILEVNGRKQRVHIIVVIVNGRLRELVLIFG”, the protease stability score is 1.41.

Turning to “SEEEELFEIAIRIFLHILHTGNEEDFHRFADPNMRMIIGDKEHHGWEEVFKWFEFVFRHARIKDTEIKSVRIINGRVHNEGRVNININGVEVIKEVHLVSEKVDGKWVLKRVEIR”, the protease stability score came to 1.52.

“SEEEELFRKLVNLFLRDVLTGDEESLIELMDPDVRVDINGRKNVGWEEVANTWKQMRIRDFEYREVEYYNGQARIHGVRDGNINGVDERTEIEISMSIVDGRLKHVRVHVR” had a protease stability score of 2.09.

The sequence “SEEEELHDEHLKKIYTALLTGDFDTFRNMVDPHVRLDWNGVRLHGREVVVRTMIELGADHIEIKEVSFQGDKVDLHFREKVNGKEFRVRIEKQKFNGQWSISSEHQR” displayed a protease stability score of 1.14.

With “SEEEELHEILLHLLLLMHTTGDEHLLRRLADPNARVDINGREWHGRDLMVKFLVEIRIHRTRIHDERDIDGRVHMETRVDGLWNGVRYTFDTRIHAVKVNGRWLLESYSVE”, the protease stability score was 1.21.

The sequence “SEEEELHRLLRERYIKNALTGNEKHLRRLADPNTRNNVNGRTHHGWDFYTDMISRLGADHVQIHDRHVDIQGEYIDVHLEVELNINGKHHRLDVRIIILKVDGKWTLHSFEML” came in with a protease stability score of 0.553.

“SEEEELIEYILELWMHAYVTGDEDVVHEMADPNVRIQVGDKKFIGRKTFSETIHELLNRVDHFRLHIRDYKVINGKAIMHIELHYRVNGKDIHHHVDIDVHKINGRWIVKSIHYR” returned a protease stability score of 1.83.

Turning to “SEEEELIHILERLIIEFRRTGNEEAWMNLMDPHAKVEIGDFDLIGRDEVSRWLHHLRIDDIHITLRRFRDIDGRVISYGEENIRVDFNGQHVEFRRRSILILFKVDGQWYIESIHVH”, the protease stability score stood at 0.959.

“SEEEELLEHAYRHLIHTILTGDERLIEEMLDPNVRISIGEYHSHGREEAIRDVHELGIKHSERLHLTHVDSQGNKVRLHVEFVTNVNGVRRHVTVTWHIIKVNGKWYIESWDHQ”: the protease stability score was found to be 1.83.

The sequence “SEEEELLRRIMKRVIHEWLTGDEDSFKELADPNVRVENIVDGRNIEAVGRDEAEHVWRHFDKHLGVDHRELKEFHVFDGVIRVRMKLKIGDKEIEMHLKFIIIDGRFTRVHSHSV” returned a protease stability score of 1.31.

Regarding “SEEEELLRRITDEMIESMLTGDEKYILENVDPNVRLHIGDKTYVGWETYEDHMRERLEKLGADHMKLEHKDHQGNYTLIEGNLSFNGRELEVRIKLIIVNGVLEQVEVRFD”, the protease stability score was 0.955.

As for “SEEEELLRRLFELFYKIWHTGDFRSLYENADPNTQLDVGDKRFHGMEVVIEALRQIWEKFGFKVELIDEHHVINGQINMDGLLDINGKKMKTHINLRLIDGVMKTIRIDIR”, the protease stability score stood at 0.049.

Turning to “SEEEELMKKAMNTILESLKTGDFHTLENLVDPTARSDINGVILHGRELMHHEWERLLRELGVDVWEINEIHLRYVDGVVRIDIDGKVIIGDKSRTVHLRIIAHKIDGRWHIHSISFEVR”, the protease stability score was 1.83.

On to “SEEEELNQKLLEEIIQILITGDWRALLELADPNVRSEVNGVELHGMETHARHLLEMLEKYPNIQVRIHHLEVQGEKIIIHGTIHFNGRDLRLTLVWHVVNGRWKEVRSELR”, for which the protease stability score was 1.35.

Consider “SEEEELQRQLIEEFIRNRLTGDEDRLLELMDPNVRVRVGEKHAHGREEAIKLWHDHLHHWRIRHLTLRDYRVIDGKIHLHGEIHGEYNGKEHHTRTTIIIVHIDGRLRSIRIEID”, for which the protease stability score was 2.12.

On to “SEEEELRHELAHRWLRAFETGNFHMLLELFDPNTYFEVGDKKFHGREEVSKLLEEIWEHIRFEHVKVREVRLQGDKLHIDGETDGRVNGRDEKRKVEFEVTVINGVIHSVIIRIK”, for which the protease stability score amounted to 2.46.

“SEEEELSEIASRITIEILKTGDEHMLHELADPNARLDVNGVESHGRESVVKSFRMLGVKHWTLRDVKVVDGRVWIHGELHVDGKTRRLILIVEKINGRWVMEEIRIG” displayed a protease stability score of 0.817.

As to “SEEEELSHTMWRLWVHAVRTGDFRMLEHLADPHVRDVRNINGVTTRLVGREEWRRIVEEEIDKYPNMRVEFEDVRDVGNYVHAHTKSHYDGKTVDTRVELLVVDGRISDFKLHIE”, the protease stability score is 1.08.

As for “SEEEELTEMVARVIVHSLLTGDEENLDHMLDPNVKIDNDIDGKEERLHGREDRRRVNEEWGWSNIHWIVRRIRTQGNKATVDGEIRFDGVTEHVRLIVILFNGKVHLVRLKHL”, the protease stability score is 0.77.

“SEEEELTQELFERFHHVLRTGDWREMVHLADPNARNIFENRTIVGREDVSKILSELLQRVKGIRWHIESIHVQGDFLKLDYRMQVGDKSENVEIHYLKFNGKWILKSIRFE”: the protease stability score was determined as 1.32.

With “SEEEELTRITEQLMIEHLRTGDWDELQHLLDPDARLHFNGREFIGREIVIKLKLEKLRDLGMTFRDFHIKSWDSQGDKIHLRVREEVEFNGKNIELDVEIIARKVDGKWFIEQIKVR”, the protease stability score was determined as 1.1.

With “SEEEELVKKATDHWKNVIKTGDEHTIKKLVDPSARIIINGQEHHGRHMIHTLIHLWGVDKIEVHLRHLHMQGDKLEIINEVRVNGQSSTLTTISTKINGVWQFEEVQLE”, the protease stability score was determined as 0.902.

For the sequence “SEEEELVREHIKRVIHSYETGDWKSFLELFDPNVRLRVGDKELHGRELFIHWLVRLIELLGINHFELILHDVELQGNKAHSDIHSNLTVGDKTEHRKVHLFNLKVNGRWRTQSEHIE”, the protease stability score stood at 1.36.

“SEEEELVRQWLERTTEALLTGDEEYVLHLADPRTRFDVGDKEIHGMEEFLKRHLQLRIHHMHWEVTEIRLIDGVARSTGTLEIIMQQGDKRFRVRIRSEVISEKIDGRWRLRSIKIH” came in with a protease stability score of 1.44.

The sequence “SEEEELWEELKELSEEWFETGDEDRLLEMADPHVKVVFNGKHEHGREALRLVLETMKRRFKNATYHPHTIELQGEKVFLKIKVRVGDKEQELEIILIIVDGRLKEIRIHIRIK” came in with a protease stability score of 2.62.

Turning to “SEEEELWKMVDHLVHEWLRTGDEDTFSHYADPHARSIVNGKELHGREEFSNLVHKLKEQYPNLTLTIDELRSVGDKITLHITEEFNGVRYDVRIYALKVNGKWLHRYVEVR”, the protease stability score was found to be 1.54.

In turn, “SEEEELWRLAEETSERIIRTGDFTRLEEMIDPDARMHIDGRTHHGRETISKILLHELTRIKNVKFEIKHKSSQGDWVDIDLILRFDGKTEHIRYYVYKINGQWFLHSIEYH” returned a protease stability score of 1.19.

In turn, “SEEEEMAHRVLEILLYALRTGDEKWMRKLVDPNVRLHVNGVEFHGRDEYTKFLHEHINRFDHFHSLTVTEIRHQGDFIVLHTILNIQWDGRSTRIDIHIIVLKVNGRWLLHSSSIE” displayed a protease stability score of 1.25.

Sequence “SEEEEMARRFTDRLLHFTQTGDERLVHEFVDPNARDDVNGREFHGWRSIHDIMRRLGIDHIRIRHIEVQGDKVRSHWQYVFNGVILEVEINTEKVDGRWLIKSVTFK” showed a protease stability score of 1.14.

“SEEEEMDRHYSNLWNHLMFTGDWHWLEKLVDPHTRTIVDGQERHGREEALKVLKEVLEILGADVIRIHEMRYQGEKSNLVIEIKQGDKRLRVVIEVVVIDGVMHSLDLEIRHE” came in with a protease stability score of 0.795.

On to “SEEEEMIEKLIRLLVKAHETGDWDTEHELMDPHVRIDINGKEIIGREDWHEHVKRMGFKHSRVEIRIRHLTTQGEKIHIHGELRVIYDIDGRTIDRSTEVHYHLRKINGKWLITEIEIR”, for which the protease stability score is 1.69.
